Paper PMC4006704

Assays:
[1] = target: GST-Med19 (Drosophila melanogaster) (UniProt Q9VVL6); assay: pull-down; 35S-labelled Hox / homeodomain peptides on immobilised GST-Med19 (Figures 1E, S2)
[2] = target: multiple GST-Hox proteins (Drosophila melanogaster); assay: pull-down; 35S-labelled Med19 (full length or deleted versions) probing immobilised GST-Hox fusions or GST-HDAntp; standard conditions, essentially as in ref. 68 (Figures 1A, 5A)

Molecule: HD region of Drosophila Ubx, with its hexapeptide (HX), linker region and HD (wild-type) (domain or fragment)
- percent of input bound [1]: 7 % of input

Molecule: HD region of crustacean Artemia Ubx (linker-shortened C-terminal region) (domain or fragment)
- percent of input bound [1]: 5 % of input

B1: 35S-labelled full-length Med19 (Mediator complex subunit 19) (natural protein)
chain: MMSNYGNMMDSPKSSPHGGGRSPVVARQDSSGTLKTTISLGKTPTIIHTGPFYSMKEPPAKAELTGDKDLMTEYGLHHTLTKFKEKKFKESLASFLQNIPGINDLITHPVENSTLRSVIEKPPIGGKELLPLTPVQLAGFRLHPGPLPEQYRTTYVTPARKHKNKHKKQKHKDGVTTGQESTLLDSAGLETYEKKHKKQKRHEDDKERKKRKKEKKRKKKNQSPEPGVGLLPGGASLGGAAGVMGATSLGSLGGGPGGPGLSSLSASMGPGVVGNMNSFSSSMQMQQQQQMPMQQQQMSSGGLLGSVLGTSGGPGGGGGGGGGGGGGVGGSLLMSQF
modifications: 35S-labelled
- percent of input bound [2]: > 5 % of input
